Target: plasma derived C3b (UniProt P01024)
Experiment: cell-based or functional assay

UniProt P01024, sequence (P01024 749-1663 limits assumed, chain 1 of 2): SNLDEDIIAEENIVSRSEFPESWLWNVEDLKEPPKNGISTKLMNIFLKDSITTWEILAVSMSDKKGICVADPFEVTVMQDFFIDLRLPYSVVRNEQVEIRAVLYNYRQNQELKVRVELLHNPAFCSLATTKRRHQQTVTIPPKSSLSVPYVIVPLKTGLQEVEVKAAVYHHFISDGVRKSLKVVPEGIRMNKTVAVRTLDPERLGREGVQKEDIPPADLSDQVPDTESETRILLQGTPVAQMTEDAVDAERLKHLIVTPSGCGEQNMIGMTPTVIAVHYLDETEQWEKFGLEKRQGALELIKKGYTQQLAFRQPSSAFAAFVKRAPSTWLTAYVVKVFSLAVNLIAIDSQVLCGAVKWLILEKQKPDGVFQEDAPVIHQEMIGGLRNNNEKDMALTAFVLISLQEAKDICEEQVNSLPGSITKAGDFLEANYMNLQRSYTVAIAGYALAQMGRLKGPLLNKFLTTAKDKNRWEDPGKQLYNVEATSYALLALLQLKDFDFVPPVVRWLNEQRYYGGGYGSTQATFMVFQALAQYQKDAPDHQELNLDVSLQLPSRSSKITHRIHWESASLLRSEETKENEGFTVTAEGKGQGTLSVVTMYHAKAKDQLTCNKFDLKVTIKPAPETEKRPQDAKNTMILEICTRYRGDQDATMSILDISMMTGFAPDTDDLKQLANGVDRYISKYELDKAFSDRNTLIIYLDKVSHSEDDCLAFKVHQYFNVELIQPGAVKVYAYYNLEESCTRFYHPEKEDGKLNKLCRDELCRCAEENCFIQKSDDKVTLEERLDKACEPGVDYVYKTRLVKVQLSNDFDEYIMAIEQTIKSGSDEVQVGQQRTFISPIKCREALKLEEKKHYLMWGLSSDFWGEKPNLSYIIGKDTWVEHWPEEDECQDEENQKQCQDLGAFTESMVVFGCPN
UniProt P01024, sequence (P01024 23-667 limits assumed, chain 2 of 2): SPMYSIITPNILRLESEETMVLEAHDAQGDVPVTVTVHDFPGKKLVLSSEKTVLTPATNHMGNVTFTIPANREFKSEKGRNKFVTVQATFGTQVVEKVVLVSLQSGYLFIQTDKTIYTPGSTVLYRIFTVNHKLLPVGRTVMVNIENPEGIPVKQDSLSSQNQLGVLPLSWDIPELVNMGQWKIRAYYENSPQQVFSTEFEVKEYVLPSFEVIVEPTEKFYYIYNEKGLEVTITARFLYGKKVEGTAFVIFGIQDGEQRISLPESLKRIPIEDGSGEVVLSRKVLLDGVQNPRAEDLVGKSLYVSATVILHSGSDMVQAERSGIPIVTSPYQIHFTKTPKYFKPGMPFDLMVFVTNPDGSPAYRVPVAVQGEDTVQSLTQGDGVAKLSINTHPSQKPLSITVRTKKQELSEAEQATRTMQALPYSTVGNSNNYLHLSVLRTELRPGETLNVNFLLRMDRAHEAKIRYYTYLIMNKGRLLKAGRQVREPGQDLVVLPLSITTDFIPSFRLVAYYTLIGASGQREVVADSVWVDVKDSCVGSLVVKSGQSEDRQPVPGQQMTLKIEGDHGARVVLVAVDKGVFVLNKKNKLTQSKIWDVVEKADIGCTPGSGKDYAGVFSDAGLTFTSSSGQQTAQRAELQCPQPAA

- fluid phase Factor I cofactor activity: concentration of regulator at which the C3α′ band disappears (complete degradation of C3b), SDS-PAGE: 200 nM
Substance: FH^1-5∧18-20 (from UniProt P08603 19-322; P08603 1046-1231)

Source: patent publication US20230101835A1
